# Data reported in patent US20210246200A1 (UNIVERSIT T Z RICH, published 2021).
# Numbering of substitutions follows the chain as printed. In names and notes the source's numbering stands.
# B1: 104348_VH5D98E_VK1D28Q (antibody, human IgG1, kappa, N297A, V domains shown)
# VH: EVQLVQSGAEVKKPGESLKISCKGSGYAFTNYLIEWVRQMPGKGLEWMGVINPGSGGTNYNEKFKGQVTISADKSISTAYLQWSSLKASDTAMYYCARWRGEGYYAYFDVWGQGTTVTVSS
# VL: AIRLTQSPSSFSASTGDRVTITCKASQSVDYQGDSYMNWYQQKPGKAPKLLIYAASNLESGVPSRFSGSGSGTDFTLTISSLQSEDFATYYCQQSNEDPYTFGGGTKVEIKR
# notes: also called Antibody No: 1; parental antibody
# B2: Antibody No: 13 (antibody, human IgG1, kappa, N297A, V domains shown)
# VH: B1 VH with N59Y
# VL: B1 VL with A54S
# notes: VH N58Y; VK A50S; also called 108925
# B3: Antibody No: 15 (antibody, human IgG1, kappa, N297A, V domains shown)
# VH: B1 VH with N59Y
# VL: B1 VL with M37L, A54S
# notes: VH N58Y; VK M33L + A50S; also called 108926
# B4: Antibody No: 12 (antibody, human IgG1, kappa, N297A, V domains shown)
# VH: B1 VH with N59Y
# VL: B1 VL with M37L
# notes: VH N58Y; VK M33L; also called 108924
# B5: Antibody No: 8 (antibody, human IgG1, kappa, N297A, V domains shown)
# VH: B1 VH with F108Y
# VL: B1 VL with A54S
# notes: VK A50S; also called 108923
# B6: Antibody No: 20 (antibody, human IgG1, kappa, N297A, V domains shown)
# VH: B1 VH with N59Y, F108Y
# VL: B1 VL with M37L, A54S
# notes: VK M33L + A50S; also called 108928
# B7: 104346 (antibody, V domains shown)
# VH: QVQLVESGGGVVQPGRSLRLSCAASGYTFSSYLIEWVRQAPGKGLEWVAVINPGSGGTNYADSVKGRFTISADKSKNTAYLQMNSLRAEDTAVYYCARWRGDGYYAYFDVWGQGTTVTVSS
# VL: DIVLTQSPLSLPVTLGQPASISCKASQSVDYDGDSYMNWYQQRPGQSPRLLIYAASNLESGVPDRFSGSGSGTDFTLKISRVEAEDVGVYYCQQSNEDPYTFGGGTKVEIK
# notes: VH3s/VK2
# B8: 104350 (antibody, V domains shown)
# VH: B1 VH with E102D
# VL: EIVLTQSPATLSVSPGERATLSCRASQSVSYDGDSYMNWYQQKPGQAPRLLIYAASNLASGIPARFSGSGSGTEFTLTISSLQSEDAAVYYCQQSNEDPYTFGGGTKVEIK
# notes: VH5/VK3s
# B9: 104348_VH5_VK1D28Q (antibody, V domains shown)
# VH: B1 VH with E102D
# VL: AIRLTQSPSSFSASTGDRVTITCKASQSVDYQGDSYMNWYQQKPGKAPKLLIYAASNLESGVPSRFSGSGSGTDFTLTISSLQSEDFATYYCQQSNEDPYTFGGGTKVEIK
# notes: Human IgG1 Fc domain with the N297A point mutation
# B10: 104348_VH5D98E_VK1 (antibody, V domains shown)
# VH: B1 VH
# VL: B9 VL with Q32D
# notes: as for B9
# B11: 104349_VH5_VK2D28Q (antibody, V domains shown)
# VH: B1 VH with E102D
# VL: B7 VL with D32Q
# notes: as for B9
# B12: 104349_VH5D98E_VK2 (antibody, V domains shown)
# VH: B1 VH
# VL: B7 VL
# notes: as for B9
# B13: 104349_VH5D98E_VK2D28Q (antibody, V domains shown)
# VH: B1 VH
# VL: B7 VL with D32Q
# notes: as for B9
# B14: 108930 (antibody, human IgG1, kappa, N297A, V domains shown)
# VH: B1 VH with T30S, N59Y
# VL: B1 VL with M37L, A54S
# B15: 104341 (antibody, V domains shown)
# VH: QVQLVQSGAEVKKPGSSVKVSCKASGYAFTNYLIEWVRQAPGQGLEWMGVINPGSGGTNYNEKFKGRVTITADKSTSTAYMELSSLRSEDTAVYYCARWRGDGYYAYFDVWGQGTTVTVSS
# VL: B9 VL with Q32D
# notes: VH1/VK1
# B16: 104344 (antibody, V domains shown)
# VH: B15 VH
# VL: B8 VL
# notes: VH1/VK3s
# B17: 104345 (antibody, V domains shown)
# VH: B7 VH
# VL: B9 VL with Q32D
# notes: VH3s/VK1
# B18: 104343_VH1D98E_VK2D28Q (antibody, V domains shown)
# VH: B15 VH with D102E
# VL: B7 VL with D32Q
# notes: as for B9
# B19: 104343_VH1_VK2D28Q (antibody, V domains shown)
# VH: B15 VH
# VL: B7 VL with D32Q
# notes: as for B9
# B20: 104343_VH1D98E_VK2 (antibody, V domains shown)
# VH: B15 VH with D102E
# VL: B7 VL
# notes: as for B9
# Target: T1, Proleukin® (aldesleukin) (human, UniProt P60568 21-153, limits assumed)
# T1 construct: Variant of human wt IL-2 with C145S (C125S on mature IL-2); also called IL-2 (Proleukin®); human IL-2 (Proleukin)
# Assay: ELISA, coated Proleukin, HEK293F supernatant 1:2
# Experimental: Subsequently, hIL-2 binding efficiency of the antibodies present in the supernatants was determined using ELISA. In brief, ELISA plates (Maxisorp 96-well black microtiter plate) were coated overnight at 4° C. with 100p/well of Proleukin® (5 μg/ml PBS). ELISA plates were washed once with TBST (1×TBS/0.05% Tween 20) using a plate-washer (BioTek). […] After removal of the blocking buffer, plates were washed once with TBST using the plate washer. Supernatants were diluted 1:2 in blocking buffer and 50 μl transferred to the designated well of the ELISA plate. Each sample was present on three ELISA plates. The three plates were incubated at RT under gentle agitation. […] The other two plates were washed either every hour three times with TBST for 4 hours or washed every hour three times for 12 hours before adding the detection antibody. […] Luminescence signal was measured after 5 minutes incubation in the dark. […] All ELISA values are mean values based on two measurements.
# T1 sequence (P60568 other isoform, or with tags, fused parts or gaps limits assumed): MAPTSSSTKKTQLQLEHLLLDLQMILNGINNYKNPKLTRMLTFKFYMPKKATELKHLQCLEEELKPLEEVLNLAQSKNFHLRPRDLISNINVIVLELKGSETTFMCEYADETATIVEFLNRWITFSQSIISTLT
ELISA value (Normal ELISA) [luminescence signal],ELISA value (wash 3x every hour for 4 HRS) [luminescence signal],ELISA value (wash 3x every hour for 12 HRS) [luminescence signal],Binder
1180,1060,717,B1
14500,14600,4520,B2
11100,10500,3800,B3
20000,17400,5960,B4
9370,7310,2530,B5
11700,11100,5200,B6

# Target: T1, Proleukin® (aldesleukin)
# Assay: ELISA, coated Proleukin, mean of 3 experiments;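 also: binding of anti-human IL-2 antibodies, tested as an 11-point dilution series for 2 hours, to plate-bound IL-2, detected via streptavidin-HRP with absorbance read at 450 nm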
# Experimental: ELISA plates (Corning) were coated with human IL-2 (Proleukin) at 10 μg/mL in PBS overnight at 4° C. The plates were washed 6 times with PBST, then blocked in 1% BSA/PBST for 2 hours. After blocking and washing, the anti-human IL-2 antibodies were added on the plate in an 11-point dilution series in 1% BSA/PBST and incubated for 2 hours. […] The plates were then washed again and incubated with Streptavidin-Horseradish Peroxidase in 1% BSA/PBS for 45 minutes. After washing, the substrate (R&D Systems) was added into the plates and the enzymatic reaction was stopped after 3 minutes by adding Stop Solution. The plates were read by a microplate reader at 450 nm with a wavelength correction set to 540 nm.
row,EC50 [nM],Binder
1,1.7,B7
2,1.18,B1
3,0.8,B8
4,0.06,B2
5,0.05,B3
6,0.97,B9
7,0.11,B4
8,0.05,B5
9,0.71,B6
10,0.77,B10
11,0.43,B11
12,0.56,B12
13,0.66,B13
14,0.06,B14
15,0.4,B15
16,0.7,B16
17,2.9,B17
18,0.75,B18
19,0.59,B19
20,0.57,B20

# Target: T1, Proleukin® (aldesleukin)
# Assay: SET assay (solution equilibration titration, MSD)
# Experimental: A 22 serial 2n dilution of the antigen was prepared in sample buffer. A constant concentration of the antibody was added. […] A volume of 60 μl of each antigen:antibody mix was distributed in duplicates to a 384-well polypropylene microtiter plate (PP MTP). Sample buffer served as negative control and a sample containing no antigen as positive control (Bₘₐₓ). The plate was sealed and incubated overnight (o/n) at room temperature (RT). A 384-well standard MSD array plate was coated o/n with 2 μg/ml of IL-2. After three times washing with washing buffer, the plate was blocked with 50 μl/well blocking buffer for 1 hour at RT. After washing, a volume of 30 μl/well of the antigen:antibody mix was transferred from the PP MTP to the coated MSD plate and incubated for 20 min at RT. After an additional wash step, 30 μl of detection antibody (diluted 1:2000) in sample buffer was added to each well and incubated for 30 min at RT. The MSD plate was washed and 35 μl/well of read buffer was added and incubated for 5 min. ECL signals were measured with the MSD SECTOR Imager 6000.
row,Kd [nM],Binder
1,0.272,B1
2,0.155,B9
3,0.206,B10
4,0.069,B11
5,0.178,B12
6,0.188,B13
7,0.111,B18
8,0.069,B19
9,0.098,B20

# Target: T1, Proleukin® (aldesleukin)
# Assay: ELISA, coated Proleukin, serially diluted supernatant
row,EC50 [nM],Binder
1,1.04,B1
2,0.19,B2
3,0.28,B3
4,0.25,B4
5,0.24,B5
6,0.27,B6
